Data on 2 molecules can be found in paper PMC6192259 (Molecular cell, 2017).

One experiment deals with Dim1 (yeast, UniProt P41819 1-318). Kind of experiment: pull-down.
Another experiment concerns the target MBP-Dim1 (yeast, UniProt P41819 1-318). Put plainly: pull-down.

Sequence of Dim1 (P41819 whole entry): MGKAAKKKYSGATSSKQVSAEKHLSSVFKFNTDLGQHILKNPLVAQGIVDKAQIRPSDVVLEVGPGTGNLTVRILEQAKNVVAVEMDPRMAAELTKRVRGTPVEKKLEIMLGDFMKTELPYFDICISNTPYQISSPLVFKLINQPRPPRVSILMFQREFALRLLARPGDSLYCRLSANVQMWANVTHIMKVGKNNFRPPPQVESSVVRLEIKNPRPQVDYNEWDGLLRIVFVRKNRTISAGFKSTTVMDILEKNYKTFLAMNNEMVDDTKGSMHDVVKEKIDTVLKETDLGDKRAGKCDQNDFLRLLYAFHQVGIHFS
Sequence of MBP-Dim1 (P41819 whole entry): as above

B1: MBP-Fap7 (enzyme, yeast, UniProt Q12055 1-197, looked up)
chain: MEARRYGPNIIVTGTPGCGKSSTCEFLKNKLKDYKYYNISDFAKDNDCFEGYDEGRKSHIVDEDKLLDMLEPLLRQGNSIVDWHVNDVFPERLIDLVVVLRCDNSNLYSRLHARGYHDSKIEENLDAEIMGVVKQDAVESYEPHIVVELQSDTKEDMVSNVSRIVAWEKMWLEQHPDGVTNEYQGPRSDDEDDEDSE
For the molecule B1, in the experiment with Dim1, the binding result is “binds”.

B2: Fap7 (enzyme, yeast, UniProt Q12055 1-197, looked up)
chain: MEARRYGPNIIVTGTPGCGKSSTCEFLKNKLKDYKYYNISDFAKDNDCFEGYDEGRKSHIVDEDKLLDMLEPLLRQGNSIVDWHVNDVFPERLIDLVVVLRCDNSNLYSRLHARGYHDSKIEENLDAEIMGVVKQDAVESYEPHIVVELQSDTKEDMVSNVSRIVAWEKMWLEQHPDGVTNEYQGPRSDDEDDEDSE
Take B2: in the experiment with MBP-Dim1, the binding result is on record as “binds”.
